Measurements from the DeepSol protein solubility set.

experiment: soluble on expression in E. coli; label from the status in PepcDB or PDB records

Soluble on expression in E. coli, not soluble:
MSLIQLRPCPKSYTRDQDKATTPAETVRRVRERLASLDISILAETRRVDVGRLGIPVFLSVCGADARAVMPTRKQMGKGASLEQAQASALMELMERYSFFTFWRDMPGMVEATWSEARNRFGDALIPVDEILHSVHDTLSPDDAVRALDLWRWKFFPATDITHGREVWLPLDWFKKLGEFNGSSAGNTEEESILQGSCELVERHVCCLIDRTQPELPTIDPASLDDPVLLELAAAFERNGIRLVLKDFSMGMPVPTVGAIAWDPATFPERSEIVYTAGTSSSPVKAAIRAVTEVAQLAGDFCTGACYEASGLSKYESLDDIAWLVAGPVVALDTLPSVETDDIRDELAALCDGLAATGHTLYSVSTMNPDVGVNTHYNIVPGFHFRERDRNAEGHHHHHH
MSLITLPKISLIGSNIAKEGLEFVFAGPLAACSDCRVKNVCFNLEQGHRYRVTKVREQVNPCIIFNGDKVNTVEVEELEDYVNVQESKRIQEGAIITLKSMNCDYITCPNIEKCNLYYFKPDSKVMVKSIGKEIKCPKGYKMKQVAITYKEGHHHHHH
MSLKDEYTTSFGIRTIEVIPNKGFFLNGKRTSFKGVCNHHDLGPLGGAVNDAAIRRQIRILKDMGCNAIRTSHNMPAPELIRACDEMGMMVMAESFDEWKAMKVKNGYRHVFDEWAVKDLTNLLRHYRNNPSVVMWCIGNEVPEQWDGNKGPKMSYFLQELCHREDPTRPVTQGMDAPDAVVNNNMAAVMDIAGFNYRPHKYQENYKKLPQQIVLGSETASTVSSRGVYKFPVTRQWMKKYDDHQSSSYDVESCSWSNLPEDDFIQHEDLPYCIGEFVWTGFDYLGEPTPYYTDWPSHSSLFGIIDLAGLPKDRYYLYRSHWNKEQETLHILPHWNWEGREGEITPVFVYTNYPSAELFINGKSQGKRTKDLSVTIDNSADSVSIMNLKRQSRYRLMWMDTKYEPGTVKVVAYDADGKAVAEKELHTAGKPDHIELVADRNVIKADGKDLSFVTVRVVDRDGNLCPDASHEISFKVKGEGSYRAGANGNAASLESFQHPKMKVFSGMMTAIVSSTEQPGKITLEATGKGLKKGALIIESCQEAKEGHHHHHH
MSLKDGTFQIAIFSDMHFGQYESTTGPEQDRNSVEVLNKVLDYDTPDLVVLNGDLINGDSTWKHNSTHYIDMIVEPMVNRSLTWASTYGNHDHNYNINGDDILVREQMWPGARTQKMVNKTRSGTTNYYLPVYPSDCSNTSDCSPQMILWFFDSRGGNYYQGSWQENWVDQSVVDWFNETSTELTSKHNKTIPSLAFVHVPPNATVALQTELGIRKNNQPGINDDPPVPQQGYGWCADGTPTYDCPYGGQDIPFMEALVTIPGIIGLFYGHDHGNTWCYRWDTKLDGMDIEGNGIHLCYGQHSGYGGYGDWIRGAREIVVTEDMLEKNEVETYIRLESGDVVGKVMLNSTYNEGHHHHHH
MSLKEKSVINAVKAEILVEKLVDKLMKEQELNPSEDILRAYYEFYKREFYRPSSVKLLGIYVKSKKEAERISQILKQGEVPSTEDVKVSKPLWYSIPTLPKYIRRNFRTLSVGEVSKPIKINDGYLVFKILDKKPAGFIPFERAKSLVKKMYLKEKRKEVFKKWLSEVLKKYQVRSTGKTCNTFISRFFFRKVNRQGEGHHHHHH
MSLKFEKFICNLRQFTLTNGLKRSIAIISLVDKKGNISKGEVAPLPPWSKETLEEAIRQIDAKKSFILNIDWTIENYRDALMHLHLFPSVQFGIESALLSFLDPLKTYSIPVSALLMGSKKEILAQAKLRLQEGYQIAKLKVSQLSFSDAAKLIHQLKDTFRLRIDVNRAWKTEDSLQFFSEYSLDSFDYVEEPFQNPKELSLFSHPLAVDESFPSNFSLQDLETLCSLKSLIYKPTLQGGMTTCLPVYKWAKQRNIEFVLSSSFESELGLSHLISMAARLKLTSPIGIGTYHFLPQTEGPFLISNGQVNLKNLEGHHHHHH

Soluble on expression in E. coli, soluble:
MSLIKWGFIGCGEVTKTKSGPAFQKVEHSEVVAVMSRDGAKAKAYAKERGIRKWYDDAQELIDDPEVNAIYIATPPSSHATYAIMAMKAGKPAYIEKPMAVTYEECTRINRISKETGVPCFVAYYRRYLPYFQKVKEMVENGSIGNVINVQVRFAQPPRDLDYNRENLPWRVQADIAGGGYFYDLAPHQIDLLQDMFGCILEASGYKSNRGGLYPAEDTLSACFQFDNGLVGSGSWCFVAHDSAREDRIEIIGDKGMICFSVFTYEPIGLHTERGREEICIGNPEHVQQPLIQAVVDHLLGKSVCSCDGESATLTNWVMDKILGKLEGHHHHHH
MSLILVTGHRGFIGSHIYSYFNGNSEVYGFDIGDKLEDRRYDVIIHMAARGLIRKSIEFPYDYFQDDLSLVVRFLELARKNDSVFIFPSSGSTAEPTNPYSLAKKNAEEWIRLYGKLYGLKYYILRFFNIYGDGAKKGAVYLFTKAALSGEEAIVYGDGSHIRDFLYVGDVPITIERILNEKYRTGEYEVGSGKGTSVNDLISLIEKVTGKKIRTRHEDYIVPEASELVAKNTIVKNPTPLEVGVERVMEFILKDNEGHHHHHH
MSLINEATLAESIRRLRQGERATLAQAMTLVESRHPRHQALSTQLLDAIMPYCGNTLRLGVTGTPGAGKSTFLEAFGMLLIREGLKVAVIAVDPSSPVTGGSILGDKTRMNDLARAEAAFIRPVPSSGHLGGASQRARELMLLCEAAGYDVVIVETVGVGQSETEVARMVDCFISLQIAGGGDDLQGIKKGLMEVADLIVINKDDGDNHTNVAIARHMYESALHILRRKYDEWQPRVLTCSALEKRGIDEIWHAIIDFKTALTASGRLQQVRQQQSVEWLRKQTEEEVLNHLFANEDFDRYYRQTLLAVKNNTLSPRTGLRQLSEFIQTQYFDEGHHHHHH
MSLINPIDPAARRPQTTVQPSTPPQAKPKPLAATQVLPAQSVLNLAQSELGTDMQELGSIFPVEESCAETLENMSFALGTQARERMRGLSSSADRARPRSMMQRLAKQVSATAPDHLEELRQRVPGIEAVEEVDDLLNSLRQHQFDAGEMALLLAAMLGKDGLSPTRRRRLEEALDRVMDDEDWALQLFSHLEFGAVGKSGLAELRRLYQRAASRQSGLVYWFGQFRQMDDRQRKLKTLIRALAFELSAQGGATDIRLAAVITDLKRVLQFLGMEDHCDRVAKALAIPELDGNRIIEELLEIIQQSWVYPDWLSSRADALMPEEHSRHGYARRMGELVKLLPDDCFEDIDQRETILAAFLEYQEQLADEEEGHHHHHH
MSLIRVSSAVQRHAQKLIVLFSLLFGASLLMSDNGFATDIKNTNASSPVNSESTKPTKAGEVKNVVRFAKTGSFDNDTVVRLARQLAKKPYVALKDPLPESLANISYDEYRDIRFKPDSAVWKADGLPYQMQLFHRGFFFQDLIEIALVEGNQATHLSYDPNMFTAGEVLQQNLPTEDIGYSGLRVHYPLNSPSYFDELFVFQGASYFRALGKGNAYGLSARGLAIKTADPAGEEFPIFRAFWVEKPNYDTNLIVVHALLDSPSVSGAYRFSIRPGENTRMDVEAVLFPRVELSKVGLAPATSMFMHSPNGREKTDDFRPSVHDSDGLLMINGRGERLWRPLANPSTLQVSAFMDNSPQGFGLMQRERDYANYQDLEAHYEKRPSLWVEPVGNWGPGAVVLTEIPTQSEIHDNIVAFWKPAQPLAAGSEYRFSYHLNWGAQPEANPQAITVSRTASGRADIAKPTPKRLFVIDYQVQGAKPAQMPEPKVRSNAGVISNVVLRDNPANNGYRLSFEFDPGEVTLAELRAELTLQEARPVETWLYRWTLEGGSHHHHHH
MSLITLKELAKQLNVSVSTVSKALHDAKDISEGTKKRIKEAAQLYNYRPNKTALALKVNKTNTIGVIIPDILNPFFAQVLHGIEDYATEHNYDTIVCVSHDQLKKEAQSLDLLMQGRVDGFILSLSSESLAQDNFLHIDQIALNKKGLVLFDRTTDQVDCDKVVIDDKRSVYDATRILISKGKTKIAFVSNIEDLNLGQLRKEGYENALRDHGIEVNYSLNLDLTGSSDPHGLIKAFLSMQEIDGVISADNTSSLMFKSILKSERPDTNSEIPLIGFSDEKNSLLSYPRIDYIDQNAMKIGSKAAELLINRLESKDLTSKPITFEMPTEIHLYEGHHHHHH
MSLKAIIDNIKILEQNAINKGLDELILMENAGLNLAKLIKKEAKKIRIQRKIRKVKILFLLGGGNNASDGLVALRNLKHAKAYKIGFKENTLFKKQEQILQNYAFKFCKKEPNFKKFHIIIDCILGTGSNRCLDEKTSLIIQKVNQSKALKIACDIPTNLGFYPCFKADITFCMGALKEILLEDFAKEFVGRIKIANLGIRSKKFYPNSQAFLLEKKDLKTIDRKINANKGNFGHIYIVANASAGTLAGLGALNFGAGLVSLVAQKSFSPLLMLKEKIENNASAIALGMGLENLDFLKDEILQNTPLILDANCFLSEALLWYLNRKDVVITPHPKEFIKLYKMCFDENLDIETLQKNRFFYARKFSQNYDCVLVLKGANPIIVQKEKLFVVNLGNQALAKGGSGDVLSGMIAAHLGFGFSALEAAKNATLAHGLVAKKYKFNKNSFDALKLIKGLKCLEGHHHHHH
MSLKDNEKYNALDFIKDDEINSLIAKGKELVSDKELVREIIEKSKSAEGLTPEETAVLLNLEDKELIEEMFKAARQVKEKLYGKRLVVFAPLYVSNYCVNNCTYCGYKHCNDELKRKKLNKEQLIEEVKVLESLGHKRIALEAGEDPVNAPLDYILDCIKSIYSIKFDNGSIRRINVNIAATSVEDYKRLKDAEIGTYILFQETYHKPTYERLHVSGPKHNYNYHTTAMHRAREAGIDDIGMGVLYGLYDYKYETLAMLMHAMDLEETTGVGPHTLSVPRIRPAENVSLENYPYLVDDEDFKKIVAILRLAVPYAGLILSTREEPGLRDEIIALGVSQVSTGSCTGVGGYSESYIDPEEKPQFEVGDHRSPVEMIESLMEAGYIPSYCTACYREGRTGERFMDIVKSGELYKICEANALITLKEFIDDYGTDRTREIGDKLIKKSIDEIDNESFRKSVEEKINKISNGTRDLRFEGHHHHHH
MSLKEAEVLKYEAFTSSPGKGNPAGVVLQGDDYTEDEMQIIAERAGYSETSFIRKSESADLELRYFTPGHEMNLCGHATVASLYALCEKGMLESGKTYSIQTKAGILPVKISEKDGRIHITLEQASPQFKPFTGDRKKLADALGITDEDFHEDLPIVFGSTGIWTAIVPLKSLEASKKMVPDNKQFPEVLVDLPKASVHPFTFETVHPDSDLHGRHFSSPYSGTIEDPVTGTASGVMGAYMKHYGNAEQHKFIIEQGQEIGKDGKVEIEMNEAGGHVKVNMTGTAVYSETRILKIEGGSHHHHHH
MSLKEEEIQNDFMFEEYHKGDKIVLNSVNGGSKTLIRTDKGFVVEGEEGKVLMFDFFGTFCTPCKEEALDLSKLWKNNSSKFIIIGLTHFEDVSDETVKKFAGDYGAYYFLSNGSSNDRIIAQILKDIDYQNMEQLPFKVVLKNGIYQKISDYWNNNTPTNFYLGKIPTELMQEDLNKIYKGKEGHHHHHH
MSLKETEIIKLFQEELKSKVLGDDAGFIKLGDRWLLLTNDMLVWRTDVPDFMTPEEAGAKVVTMNVSDIAAMGGKPIGFFFSLGLPRDINEKTLREIAKGIKRGTKRYNVEVLSGDTNESNELVIDGGAIGEAERILLRSGAKPGEVVCVTGDLGRPLTALLLWLKGEKIPREIAEKMKNPIARVREGLELANYASSAIDISDGLSKELWEISKASKVKIVIDPNSLPVHEKVKEIVKNPVEVALASGEEFELVFTISQEYLDILSFEFSIIGRVEKGEGVYTTTGEKVPMRGWEHFAGGNNDIGSEGHHHHHH
MSLKGDHAGKDRLIYKLQQTDSSYRYTNGTQGTAWTLIMENPLKGYGYGDDIYHAIYNKRVVDFPSWKFRQSIGPHNEGHHHHHH
MSLKGENMRVAGLKTDKQGVIFDMDGLLVNSEELYWQANIQAAREYKLGISDDAYLDLVGASVKAMDAFYEKYFPSDEVRQAFVKRTDDLVWEWTDQGKLKLKAGVKEALEYFNDLGLTVGIASNNYKSVVDHNLWVTGCRNSFDFIVTHDEVAEKKLRSKPFPDLYLAAQERSGLGKDQLLIFEDSSMGVEAAENAGIDCVMIPDIKPASAEDRARAQLICPDFFDFLKKISEGHHHHHH
